Positions of bridges follow the written chain, without caps; N, C: chain ends. Non-standard residues stand in square brackets, D forms with d. Chains are numbered I, II in the order given. No end group written: not given here. Tyr(3-I) = N[C@@H](Cc1ccc(O)c(I)c1)C(=O)O; Hyp = O=C(O)[C@@H]1C[C@@H](O)CN1; Tic = O=C(O)[C@@H]1Cc2ccccc2CN1; Ac6c = NC1(C(=O)O)CCCCC1; βturn = not defined here Where only a bound is given, the exact number is not on record here.

The record followed here is patent US20110124556 (published 2011).

This assay deals with human insulin receptor (HIR) (human, UniProt P06213). Briefly: competition.

By Kd is commonly meant the free concentration of one partner at which half of the binding sites on the other are occupied at equilibrium, for simple one-to-one binding. Low readings indicate a tighter complex, high ones a looser complex. Regarding AAAAFYDWFAAAAAKK [S168], binding was put at a Kd of 38 nM.

SLEEEWAQIESEVWGRSESFYDWFERQLG [S573] registered a Kd of 0.036 nM.

B1: S581 (peptide)
chain 1: SLEEEWAQIESEVWGR-βturn
chain 2: ESFYDWFERQLG
modifications: not fully specified; printed as SLEEEWAQIESEVWGR-βturn-ESFYDWFERQLG; ends and bridges not checked
In the case of B1, binding was characterised by a dissociation constant (Kd) of 0.012 nM.

Molecule SLEEEWAQIQHELWPVEKGESFYDWFERQL (not fully specified (N-terminus); ends and bridges not checked) [S605] registered a dissociation constant (Kd) of 0.094 nM.

Consider QAPSNFYDWFVREWDEE [S287], for which the affinity, expressed as Kd, was 59 nM.

Ac-SIEEEWAQIKCDVWGRGPSESFYDWFERQLG (ends and bridges not checked) [S568] registered a Kd of 0.0043 nM.

B2: S256 (peptide)
chain: [Ac6c]CLEE[dW]GASL[Tic]QCSG
modifications: not fully specified (bridges); printed as Acy-CLEEwGASL-Tic-QCSG; cysteine pairing not given here
The molecule B2 gave a Kd of 90000 nM.

As for SLEEEWAQVECEVYGRGCPS [S547], the Kd was found to be 49 nM.

Molecule SLEEEWAQIEEVWGRSESFYDWFERQLG [S572] gave a Kd of 4.8 nM.

B3: S437 (peptide)
chain 1: ESFYDWFERQLGGGGK
chain 2: LDQEWAWVQCEVYGRGCPS
B3 had a Kd of 0.69 nM.

On to DWLQRNANFYDWFVAELX (listing feature) [S294], for which the Kd worked out at 130 nM.

B4: S170 (peptide)
chain 1: CGFHENFYDWFVRQVSKK
chain 2: CGFHENFYDWFVRQVSKK
modifications: disulfide I:1-II:1; not fully specified; ends not checked
B4 gave a Kd of 700 nM.

FHENAYDWFVRQVSKK [S219]: the Kd was > 2000 nM.

For the molecule LDQEWAQVQCEVYGRGCPSESFYDWFERQL [S533], the Kd came out at 0.067 nM.

B5: S591 (protein)
chain 1: LEEEWAQIECEVWGRGCSGSLDESF
chain 2: LEEEWAQIECEVWGRGCSGSLDESF
Turning to B5, the Kd came to 0.13 nM.

Molecule SLEEEWAQIQAEVYGNPNSESFYDWFERQL [S602] returned a Kd of 0.031 nM.

B6: S378 (peptide)
chain 1: GSLDESFYDWFERQLGKKKX
chain 2: GSLDESFYDWFERQLGKKKX
modifications: listing feature
The molecule B6 came in with a dissociation constant Kd of 65 nM. This Kd is about 2100-fold higher than that of the molecule before.

B7: S423 (peptide)
chain 1: ESFYDWFERQLGK
chain 2: ACAWPTYWNCG
modifications: ends and bridges not checked; also: two chains joined C-terminus to C-terminus, the link is not given here
For the molecule B7, binding was put at a Kd of 62 nM. This Kd and that of the molecule before are within 1.5-fold of each other.

The molecule RD[Hyp]FYDWFDD[dI] [S268] registered a dissociation constant (Kd) of 450 nM.

B8: S359 (peptide)
chain 1: XDWLQRNANFYDWFVAEL
chain 2: XDWLQRNANFYDWFVAEL
modifications: listing feature
As to B8, the Kd was 700 nM.

Take SLEEEWAQIECEVWGRGCPSESFYDWFERQL [S558]: the dissociation constant Kd came to 0.019 nM.

Regarding SLEEEWAQIQCEVWGRGCPSESFYDWFERQL (not fully specified (N-terminus); ends and bridges not checked) [S606], the Kd worked out at 0.004 nM.

For SLEEEWAQIECEVWGRGCPKGFYGWFRRRRG [S584], the dissociation constant Kd stood at 9.3 nM.

The molecule CGFHENFYDWFVRQVSKK (not fully specified; ends and bridges not checked) [S171] registered a Kd of 29000 nM. This Kd is about 3100-fold higher than that of the molecule before.

SLEEEWAQVECEVYGRGCPSESFYDWFVRQLG [S555] gave a Kd of 0.057 nM.

For the molecule FHENFYDAFVRQVSKK [S222], the equilibrium dissociation constant (Kd) was > 20 nM.

B9: S441 (peptide)
chain 1: ESFYDWFERQLGGGGK
chain 2: WAWVQCEVYGRGCPS
Molecule B9 yielded a Kd of 120 nM.

Take SLEEEWAQVECEVYGRGCPPGLLDESFYHWFDRQLR [S553]: binding was put at a Kd of 0.0073 nM.

For SLEEEWAQIECEVWGRGCPKGFYGWFRRRG [S582], the Kd stood at 2.5 nM.

Regarding LDQEWAWVQCEAYGRGCPSESFYDWFERQL [S503], the Kd came out at 2.1 nM.

Molecule SLEEEWAQVEAEVYGRGAPSGSLDESFYDWFERQLG [S551] had an equilibrium dissociation constant (Kd) of 0.072 nM. Compared with the last molecule, the Kd is about 29-fold lower.

LEEEWAQVECEVYGRGCPSESFYDWFERQL [S536]: the Kd is 0.083 nM.

RWPNFYGYFESLLTHFS [S257] had a dissociation constant Kd of 14000 nM.

The molecule SLEEEWAQIECEVWGRCWHHSFYDWFERQL [S594] gave a dissociation constant Kd of 0.071 nM.

SIEEEWAQIKCDVWGRGCPPGLLDESFYHWFDRQLR [S520] registered a dissociation constant Kd of 0.02 nM.

Consider SLNFYDALQLLAKK [S119], for which binding was characterised by a dissociation constant (Kd) of 18 nM.

The molecule SLEEEWAQIECEVWGRGCPSY [S592] had an equilibrium dissociation constant (Kd) of 17 nM.

LDRQFYRYFQDLLVGFM [S260] had a Kd of 2300 nM.

For the molecule GSLDESFYDWFERQLGGGSGGSWLDEEWAQVQCEVYGRGCPS [S543], the Kd is 0.019 nM.

B10: S432 (peptide)
chain 1: ESFYDWFERQLGGGGK
chain 2: CEVYGRGCPS
As for B10, the dissociation constant Kd is 180 nM.

Ac-SIEEEWAQIKCDVWGRGSESFYDWFERQL (ends and bridges not checked) [S600] showed a Kd of 0.0076 nM.

Regarding AFYDWFAK [S180], the dissociation constant Kd was > 2000 nM.

As for NANFYDWFVAELG [S241], the dissociation constant (Kd) worked out at 16000 nM.

With SSNFYQALMLLS [S129], the equilibrium dissociation constant (Kd) worked out at 2900 nM.

B11: S588 (peptide)
chain 1: LEEEWAQVECEV
chain 2: [Tyr(3-I)]GRGCSGSLDESFYDWFERQLG
modifications: ends and bridges not checked
In the case of B11, binding was put at a Kd of 0.18 nM. This Kd lies about 16000-fold lower than the previous one.

As to WPGYAWLS [S317], the Kd was > 20000 nM.

Molecule [dF][dH][dE][dN][dF][dY][dD][dW][dF][dV][dR][dQ][dV][dS][dK][dK] [S114] came in with a dissociation constant (Kd) of 83000 nM.

Take FHENFYDWFVAQVSKK [S108]: the equilibrium dissociation constant (Kd) worked out at 750 nM. Against the preceding molecule, the Kd is about 110-fold lower.

The molecule SLEEEWAQIECEVWGRGCSESFYDWFERQL [S559] showed a Kd of 0.021 nM.

In the case of WGRSFYRYFETLLAQGI [S261], the dissociation constant Kd is > 20000 nM.

B12: S433 (peptide)
chain 1: ESFYDWFERQLGGGGK
chain 2: WLDQEWAWVQ
In turn, B12 came in with a Kd of 110 nM.

B13: S444 (peptide)
chain 1: ESFYDWFERQLGGGGK
chain 2: VQCEVYGRGCPS
For B13, the dissociation constant Kd was determined as 190 nM.

As to SIEEEWAQIKCDVWGRGCSESFYDWFERQL [S556], the dissociation constant Kd turned out to be 0.032 nM. Compared with the last molecule, the Kd is about 5900-fold lower.

With DWLQRNANFYDWFVAELG [S236], binding was put at a Kd of 100 nM. This Kd is about 3100-fold higher than that of the molecule before.

Take WLDQEWAWVQCEVYGRGCPSGGSGGSGRVDWLQRNANFYDWFVAELG [S511]: the equilibrium dissociation constant (Kd) turned out to be 3.8 nM. This Kd is about 26-fold lower than that of the molecule before.
